Results from patent US20200262877A1, “ION CHANNEL-BINDING PEPTIDES AND METHODS OF USE THEREOF” (priority 2017, published 2020).

What was measured:
Kv1.1 = target: T1, Kv1.1 (Homo sapiens, UniProt Q09470); assay: cell-based; assay type: cell-based; conditions: 100% = no change, <100% = inhibition
T1 construct: host or cells: HEK293 or CHO
How it was run: (§1)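 Transfected HEK293 or CHO cells were exposed for at least 5 min to peptides at 200 nM and 20 μM final, tested in duplicate, in HEPES-buffered physiological saline. Activation was taken as peptide-plus-agonist current over control current ×100, and inhibition as 1 minus that ratio ×100. Each channel's control was its own reference compound.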

Kv1.3 = target: T2, Kv1.3 (Homo sapiens, UniProt P22001); assay: cell-based; assay type: cell-based; conditions: 100% = no change, <100% = inhibition
T2 construct: host or cells: HEK293 or CHO
How it was run: as §1

Kv1.2 = target: T3, Kv1.2 (Homo sapiens, UniProt P16389); assay: cell-based; assay type: cell-based; conditions: 100% = no change, <100% = inhibition
T3 construct: host or cells: HEK293 or CHO
How it was run: as §1

hERG = hERG (Homo sapiens, UniProt Q12809); assay: in vitro; conditions: 100% = no change, <100% = inhibition
How it was run: as §1

Nav1.5 = Nav1.5 (Homo sapiens, UniProt Q14524); assay: in vitro; conditions: 100% = no change; for Activity of Nav1.5 with peptide, expressed as a percentage of the reference compound: peptide at 0.2 μM; for Activity of Nav1.5 with peptide (percentage of the reference compound): peptide at 20 μM
Sequence of Nav1.5 (Q14524 whole entry): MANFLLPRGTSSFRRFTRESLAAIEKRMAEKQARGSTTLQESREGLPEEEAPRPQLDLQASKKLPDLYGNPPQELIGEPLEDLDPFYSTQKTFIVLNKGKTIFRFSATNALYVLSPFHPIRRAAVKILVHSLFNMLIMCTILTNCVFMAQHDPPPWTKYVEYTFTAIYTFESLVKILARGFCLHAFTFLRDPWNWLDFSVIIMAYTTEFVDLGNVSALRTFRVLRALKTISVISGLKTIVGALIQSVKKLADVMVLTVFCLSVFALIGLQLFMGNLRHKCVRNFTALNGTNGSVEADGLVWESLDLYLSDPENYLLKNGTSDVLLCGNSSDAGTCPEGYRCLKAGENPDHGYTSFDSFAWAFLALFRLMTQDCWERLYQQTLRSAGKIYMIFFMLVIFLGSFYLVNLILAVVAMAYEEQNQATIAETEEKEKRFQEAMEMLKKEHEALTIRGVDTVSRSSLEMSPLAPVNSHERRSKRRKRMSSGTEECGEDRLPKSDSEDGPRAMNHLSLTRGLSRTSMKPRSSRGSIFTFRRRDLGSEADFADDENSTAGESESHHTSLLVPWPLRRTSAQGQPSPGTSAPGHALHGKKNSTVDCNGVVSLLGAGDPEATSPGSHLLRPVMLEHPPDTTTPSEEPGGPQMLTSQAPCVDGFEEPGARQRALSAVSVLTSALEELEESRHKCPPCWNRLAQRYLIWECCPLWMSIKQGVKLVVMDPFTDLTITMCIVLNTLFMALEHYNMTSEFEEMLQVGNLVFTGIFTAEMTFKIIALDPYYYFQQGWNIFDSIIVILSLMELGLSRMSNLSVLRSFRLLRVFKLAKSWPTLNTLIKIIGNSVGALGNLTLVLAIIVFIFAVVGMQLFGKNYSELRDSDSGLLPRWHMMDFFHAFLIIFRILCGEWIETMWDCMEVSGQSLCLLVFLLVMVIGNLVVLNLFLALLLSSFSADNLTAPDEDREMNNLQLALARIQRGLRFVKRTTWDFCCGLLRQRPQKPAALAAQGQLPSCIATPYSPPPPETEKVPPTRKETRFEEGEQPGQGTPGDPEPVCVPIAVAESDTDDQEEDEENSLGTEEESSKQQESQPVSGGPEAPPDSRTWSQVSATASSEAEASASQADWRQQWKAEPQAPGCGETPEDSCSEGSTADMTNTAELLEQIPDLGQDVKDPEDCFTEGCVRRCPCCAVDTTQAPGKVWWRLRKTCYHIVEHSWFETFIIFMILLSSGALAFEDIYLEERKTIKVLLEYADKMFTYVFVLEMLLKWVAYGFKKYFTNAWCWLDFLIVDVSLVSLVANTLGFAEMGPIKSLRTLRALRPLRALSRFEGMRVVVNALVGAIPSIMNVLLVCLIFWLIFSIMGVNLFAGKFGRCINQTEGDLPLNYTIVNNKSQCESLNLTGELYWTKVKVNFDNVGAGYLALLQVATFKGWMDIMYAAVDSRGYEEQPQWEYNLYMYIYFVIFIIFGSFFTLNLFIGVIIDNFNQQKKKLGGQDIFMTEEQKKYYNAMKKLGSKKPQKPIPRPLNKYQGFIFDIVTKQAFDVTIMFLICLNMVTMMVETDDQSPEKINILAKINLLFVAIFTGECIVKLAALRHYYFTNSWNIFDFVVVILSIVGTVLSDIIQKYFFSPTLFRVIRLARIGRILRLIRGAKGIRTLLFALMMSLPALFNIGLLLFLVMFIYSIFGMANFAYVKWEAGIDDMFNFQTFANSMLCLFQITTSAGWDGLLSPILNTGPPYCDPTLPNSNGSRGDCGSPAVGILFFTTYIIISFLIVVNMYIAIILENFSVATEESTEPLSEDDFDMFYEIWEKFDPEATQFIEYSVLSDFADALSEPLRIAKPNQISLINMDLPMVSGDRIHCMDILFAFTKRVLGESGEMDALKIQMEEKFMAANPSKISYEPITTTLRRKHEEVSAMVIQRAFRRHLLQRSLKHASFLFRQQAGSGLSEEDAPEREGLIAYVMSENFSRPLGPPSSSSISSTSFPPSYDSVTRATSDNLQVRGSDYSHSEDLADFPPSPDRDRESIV
How it was run: as §1

TRPA1 = target: T4, TRPA1 (Homo sapiens, UniProt O75762); assay: Ion channel panel (IonWorks Barracuda): TRPA1; assay type: cell-based; conditions: 100% = no change, <100% = inhibition
T4 construct: host or cells: HEK293 or CHO
How it was run: as §1

α4β2 = target: T5, α4β2 (Homo sapiens, UniProt P17787+P43681); assay: Ion channel panel (IonWorks Barracuda): α4β2; assay type: cell-based; conditions: 100% = no change, <100% = inhibition
T5 construct: host or cells: HEK293 or CHO
T5 sequence (P43681 29-627): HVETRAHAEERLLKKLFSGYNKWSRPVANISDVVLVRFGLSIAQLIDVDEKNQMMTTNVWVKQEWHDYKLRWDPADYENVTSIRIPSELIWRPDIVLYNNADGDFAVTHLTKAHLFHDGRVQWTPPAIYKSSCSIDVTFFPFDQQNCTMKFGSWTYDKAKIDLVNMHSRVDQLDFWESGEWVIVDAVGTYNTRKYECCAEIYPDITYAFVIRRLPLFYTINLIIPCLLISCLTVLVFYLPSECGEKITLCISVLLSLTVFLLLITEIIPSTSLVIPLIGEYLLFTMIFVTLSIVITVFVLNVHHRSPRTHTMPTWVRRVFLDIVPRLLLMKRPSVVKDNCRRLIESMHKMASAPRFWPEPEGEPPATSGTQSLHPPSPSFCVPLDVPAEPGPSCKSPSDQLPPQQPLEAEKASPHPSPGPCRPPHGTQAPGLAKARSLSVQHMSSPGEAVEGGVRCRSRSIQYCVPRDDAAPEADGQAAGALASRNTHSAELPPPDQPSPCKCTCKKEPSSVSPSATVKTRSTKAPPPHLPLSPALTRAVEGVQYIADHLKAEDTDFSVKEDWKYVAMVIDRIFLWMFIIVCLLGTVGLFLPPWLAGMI
T5 sequence (P17787 26-502): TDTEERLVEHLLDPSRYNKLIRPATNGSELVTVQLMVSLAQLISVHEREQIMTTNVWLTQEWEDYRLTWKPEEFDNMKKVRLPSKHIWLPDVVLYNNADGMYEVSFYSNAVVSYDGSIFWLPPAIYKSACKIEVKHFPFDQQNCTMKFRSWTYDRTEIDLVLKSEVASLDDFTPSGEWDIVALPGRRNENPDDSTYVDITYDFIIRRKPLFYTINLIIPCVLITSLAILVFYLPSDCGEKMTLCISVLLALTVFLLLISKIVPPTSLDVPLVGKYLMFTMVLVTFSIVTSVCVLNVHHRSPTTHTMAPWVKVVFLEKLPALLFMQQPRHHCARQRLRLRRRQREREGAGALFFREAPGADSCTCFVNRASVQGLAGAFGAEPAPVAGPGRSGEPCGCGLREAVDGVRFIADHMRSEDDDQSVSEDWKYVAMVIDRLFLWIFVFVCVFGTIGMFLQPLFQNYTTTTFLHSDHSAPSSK
How it was run: as §1

α3β4 = target: T6, α3β4 (Homo sapiens, UniProt P30926+P32297); assay: Ion channel panel (IonWorks Barracuda): α3β4; assay type: cell-based; conditions: 100% = no change, <100% = inhibition
T6 construct: host or cells: HEK293 or CHO
How it was run: as §1

Nav1.7 = target: T7, Nav1.7 (Homo sapiens, UniProt Q15858); assay: cell-based; assay type: cell-based; conditions: 100% = no change; for Activity of Nav1.7 with peptide, expressed as a percentage of the reference compound: peptide at 0.2 μM; for Activity of Nav1.7 with peptide (percentage of the reference compound): peptide at 20 μM
T7 construct: host or cells: HEK293 or CHO
T7 sequence (Q15858 whole entry): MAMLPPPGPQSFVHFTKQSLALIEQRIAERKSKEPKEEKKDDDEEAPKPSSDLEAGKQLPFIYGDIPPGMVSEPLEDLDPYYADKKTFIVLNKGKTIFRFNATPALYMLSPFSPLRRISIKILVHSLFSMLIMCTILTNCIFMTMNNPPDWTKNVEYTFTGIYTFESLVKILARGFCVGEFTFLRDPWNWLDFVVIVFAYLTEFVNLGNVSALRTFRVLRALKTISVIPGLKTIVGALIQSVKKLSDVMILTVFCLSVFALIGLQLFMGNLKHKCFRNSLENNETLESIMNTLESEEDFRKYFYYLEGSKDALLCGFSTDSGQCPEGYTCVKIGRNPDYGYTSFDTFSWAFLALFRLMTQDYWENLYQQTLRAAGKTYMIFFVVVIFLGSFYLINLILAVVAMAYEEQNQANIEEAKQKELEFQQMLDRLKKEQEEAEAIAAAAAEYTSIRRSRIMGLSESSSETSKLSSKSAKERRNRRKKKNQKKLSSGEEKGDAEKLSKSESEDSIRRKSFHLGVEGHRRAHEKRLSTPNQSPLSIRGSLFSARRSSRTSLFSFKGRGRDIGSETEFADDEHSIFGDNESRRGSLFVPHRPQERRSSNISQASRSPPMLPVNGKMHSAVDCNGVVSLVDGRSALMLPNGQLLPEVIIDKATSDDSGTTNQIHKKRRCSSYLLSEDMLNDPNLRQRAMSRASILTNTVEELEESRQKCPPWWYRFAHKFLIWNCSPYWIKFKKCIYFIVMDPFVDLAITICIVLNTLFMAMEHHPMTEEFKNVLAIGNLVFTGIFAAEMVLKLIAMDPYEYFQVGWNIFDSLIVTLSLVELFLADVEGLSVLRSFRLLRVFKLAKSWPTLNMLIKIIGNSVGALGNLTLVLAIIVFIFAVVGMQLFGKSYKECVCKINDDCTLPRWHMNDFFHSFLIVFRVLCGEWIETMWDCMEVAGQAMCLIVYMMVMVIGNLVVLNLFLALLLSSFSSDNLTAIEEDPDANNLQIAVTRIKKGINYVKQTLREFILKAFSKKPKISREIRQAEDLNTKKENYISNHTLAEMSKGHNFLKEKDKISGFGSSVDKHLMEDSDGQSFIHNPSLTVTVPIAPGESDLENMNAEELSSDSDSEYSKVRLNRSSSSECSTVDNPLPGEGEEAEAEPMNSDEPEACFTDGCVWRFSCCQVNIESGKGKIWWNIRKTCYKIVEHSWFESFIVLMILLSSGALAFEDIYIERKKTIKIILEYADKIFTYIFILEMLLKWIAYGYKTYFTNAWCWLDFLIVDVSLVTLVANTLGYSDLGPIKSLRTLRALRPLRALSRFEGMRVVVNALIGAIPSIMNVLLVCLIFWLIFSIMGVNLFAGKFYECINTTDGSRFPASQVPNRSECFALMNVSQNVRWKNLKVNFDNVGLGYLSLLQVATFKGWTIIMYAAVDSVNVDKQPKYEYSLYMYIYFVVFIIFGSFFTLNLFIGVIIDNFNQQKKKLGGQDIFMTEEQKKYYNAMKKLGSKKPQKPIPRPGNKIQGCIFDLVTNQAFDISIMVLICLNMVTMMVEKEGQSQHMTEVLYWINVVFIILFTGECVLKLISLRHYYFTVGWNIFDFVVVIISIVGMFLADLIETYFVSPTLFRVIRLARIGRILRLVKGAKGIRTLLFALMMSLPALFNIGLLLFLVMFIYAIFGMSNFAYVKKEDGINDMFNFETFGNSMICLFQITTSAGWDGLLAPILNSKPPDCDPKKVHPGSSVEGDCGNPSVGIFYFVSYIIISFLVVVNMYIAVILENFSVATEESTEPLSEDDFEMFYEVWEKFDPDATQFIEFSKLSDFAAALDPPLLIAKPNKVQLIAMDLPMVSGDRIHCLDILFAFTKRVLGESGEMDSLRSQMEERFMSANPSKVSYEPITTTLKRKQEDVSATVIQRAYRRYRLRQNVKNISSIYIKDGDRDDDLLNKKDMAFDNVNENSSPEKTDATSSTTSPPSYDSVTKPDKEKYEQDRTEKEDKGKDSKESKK

Kir2.1 = target: T8, Kir2.1 (Homo sapiens, UniProt P63252); assay: Ion channel panel (IonWorks Barracuda): Kir2.1; assay type: cell-based; conditions: 100% = no change, <100% = inhibition
T8 construct: host or cells: HEK293 or CHO
How it was run: as §1

Cav2.2 = target: T9, Cav2.2 (Homo sapiens, UniProt Q00975); assay: cell-based; conditions: 100% = no change, <100% = inhibition
T9 construct: host or cells: HEK293 or CHO
How it was run: as §1

Cav2.1 = target: T10, Cav2.1 (Homo sapiens, UniProt O00555); assay: cell-based; conditions: 100% = no change, <100% = inhibition
T10 construct: host or cells: HEK293 or CHO
How it was run: as §1

Kv2.1 = target: T11, Kv2.1 (Homo sapiens, UniProt Q14721); assay: cell-based; conditions: 100% = no change, <100% = inhibition
T11 construct: host or cells: HEK293 or CHO
How it was run: as §1

5HT3a = target: T12, 5HT3a (Homo sapiens, UniProt P46098); assay: Ion channel panel (IonWorks Barracuda): 5HT3a; assay type: cell-based
T12 construct: host or cells: HEK293 or CHO
T12 sequence (P46098 whole entry, looked up): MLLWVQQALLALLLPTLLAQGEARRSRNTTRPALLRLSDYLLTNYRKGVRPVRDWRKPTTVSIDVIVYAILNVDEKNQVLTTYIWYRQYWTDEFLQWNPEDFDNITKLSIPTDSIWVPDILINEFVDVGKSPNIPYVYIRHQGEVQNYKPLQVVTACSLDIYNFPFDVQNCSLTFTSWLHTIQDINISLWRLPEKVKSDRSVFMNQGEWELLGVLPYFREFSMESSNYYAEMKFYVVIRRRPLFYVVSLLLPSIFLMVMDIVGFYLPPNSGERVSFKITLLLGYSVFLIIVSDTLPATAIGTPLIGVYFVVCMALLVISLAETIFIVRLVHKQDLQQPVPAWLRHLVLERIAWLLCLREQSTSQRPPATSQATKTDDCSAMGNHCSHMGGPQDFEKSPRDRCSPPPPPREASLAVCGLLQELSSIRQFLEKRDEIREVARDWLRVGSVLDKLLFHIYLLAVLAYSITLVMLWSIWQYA
How it was run: as §1

GABA = assay: Ion channel panel (IonWorks Barracuda): GABA; assay type: cell-based; conditions: 100% = no change, <100% = inhibition
How it was run: as §1

TRPV1 = target: T13, TRPV1 (Homo sapiens, UniProt Q8NER1); assay: Ion channel panel (IonWorks Barracuda): TRPV1; assay type: cell-based; conditions: 100% = no change, <100% = inhibition
T13 construct: host or cells: HEK293 or CHO
How it was run: as §1

NR2A = target: T14, NR2A (Homo sapiens, UniProt Q12879); assay: Ion channel panel (IonWorks Barracuda): NR2A; assay type: cell-based; conditions: 100% = no change, <100% = inhibition
T14 construct: host or cells: HEK293 or CHO
How it was run: as §1

NR2B = target: T15, NR2B (Homo sapiens, UniProt Q13224); assay: Ion channel panel (IonWorks Barracuda): NR2B; assay type: cell-based; conditions: 100% = no change, <100% = inhibition
T15 construct: host or cells: HEK293 or CHO
How it was run: as §1

[1] = first of two Nav1.5 columns (probably TP1)
[2] = second of two Nav1.5 columns (probably TP2)
[3] = first of two Nav1.7 columns (probably TP1)
[4] = second of two Nav1.7 columns (probably TP2)

38 (GSGIGDPVTCLKSGAICHPVFCPRRYKQIGTCGLPGTKCCKKP) [compound 38]
Activity of Kv1.1 with peptide, expressed as a percentage of the reference compound (Kv1.1; peptide at 0.2 μM): 97% | Activity of Kv1.1 with peptide (percentage of the reference compound) (Kv1.1; peptide at 20 μM): 73% | Activity of Kv1.3 with peptide, expressed as a percentage of the reference compound (Kv1.3; peptide at 0.2 μM): 101% | Activity of Kv1.3 with peptide (percentage of the reference compound) (Kv1.3; peptide at 20 μM): 31% | Activity of Kv1.2 with peptide, expressed as a percentage of the reference compound (Kv1.2; peptide at 0.2 μM): 100% | Activity of Kv1.2 with peptide (percentage of the reference compound) (Kv1.2; peptide at 20 μM): 84% | Activity of hERG with peptide, expressed as a percentage of the reference compound (hERG; peptide at 0.2 μM): 86% | Activity of hERG with peptide (percentage of the reference compound) (hERG; peptide at 20 μM): 71% | Activity of Nav1.5 with peptide, expressed as a percentage of the reference compound (Nav1.5; [1]): 124% | Activity of Nav1.5 with peptide, expressed as a percentage of the reference compound (Nav1.5; [2]): 124% | Activity of Nav1.5 with peptide (percentage of the reference compound) (Nav1.5; [1]): 107% | Activity of Nav1.5 with peptide (percentage of the reference compound) (Nav1.5; [2]): 112% | Activity of TRPA1 with peptide, expressed as a percentage of the reference compound (TRPA1; peptide at 0.2 μM): 138% | Activity of TRPA1 with peptide (percentage of the reference compound) (TRPA1; peptide at 20 μM): 108% | Activity of a4b2 with peptide, expressed as a percentage of the reference compound (α4β2; peptide at 0.2 μM): 107% | Activity of a4b2 with peptide (percentage of the reference compound) (α4β2; peptide at 20 μM): 88% | Activity of a3b4 with peptide, expressed as a percentage of the reference compound (α3β4; peptide at 0.2 μM): 99% | Activity of a3b4 with peptide (percentage of the reference compound) (α3β4; peptide at 20 μM): 92% | Activity of Nav1.7 with peptide, expressed as a percentage of the reference compound (Nav1.7; [3]): 83% | Activity of Nav1.7 with peptide, expressed as a percentage of the reference compound (Nav1.7; [4]): 143% | Activity of Nav1.7 with peptide (percentage of the reference compound) (Nav1.7; [3]): 86% | Activity of Nav1.7 with peptide (percentage of the reference compound) (Nav1.7; [4]): 86% | Activity of Kir2.1 with peptide, expressed as a percentage of the reference compound (Kir2.1; peptide at 0.2 μM): 88% | Activity of Kir2.1 with peptide (percentage of the reference compound) (Kir2.1; peptide at 20 μM): 126% | Activity of Cav2.2 with peptide, expressed as a percentage of the reference compound (Cav2.2; peptide at 0.2 μM): 117% | Activity of Cav2.2 with peptide (percentage of the reference compound) (Cav2.2; peptide at 20 μM): 89% | Activity of Cav2.1 with peptide, expressed as a percentage of the reference compound (Cav2.1; peptide at 0.2 μM): 95% | Activity of Cav2.1 with peptide (percentage of the reference compound) (Cav2.1; peptide at 20 μM): 93% | Activity of Kv2.1 with peptide, expressed as a percentage of the reference compound (Kv2.1; peptide at 0.2 μM): 100% | Activity of Kv2.1 with peptide (percentage of the reference compound) (Kv2.1; peptide at 20 μM): 125% | Activity of 5HT3a with peptide (percentage of the reference compound) (5HT3a): 98% | Activity of 5HT3a with peptide, expressed as a percentage of the reference compound (5HT3a): 97% | Activity of GABA with peptide, expressed as a percentage of the reference compound (GABA; peptide at 0.2 μM): 121% | Activity of GABA with peptide (percentage of the reference compound) (GABA; peptide at 20 μM): 112% | Activity of TRPV1 with peptide, expressed as a percentage of the reference compound (TRPV1; peptide at 0.2 μM): 98% | Activity of TRPV1 with peptide (percentage of the reference compound) (TRPV1; peptide at 20 μM): 76% | Activity of NR2A with peptide, expressed as a percentage of the reference compound (NR2A; peptide at 0.2 μM): 100% | Activity of NR2A with peptide (percentage of the reference compound) (NR2A; peptide at 20 μM): 90% | Activity of NR2B with peptide, expressed as a percentage of the reference compound (NR2B; peptide at 0.2 μM): 83% | Activity of NR2B with peptide (percentage of the reference compound) (NR2B; peptide at 20 μM): 88%
